{"source": "paper PMC5736527", "about": "“JUNGBRUNNEN1 Confers Drought Tolerance Downstream of the HD-Zip I Transcription Factor AtHB13”", "binders": {"B1": {"name": "JUB1 promoter 40-bp fragment (AtHB13BS-L) (dsDNA)", "DNA 1": "CTATAAAATTAGTTGCAATAAATGATTTAATTATTTTCCG", "DNA 2": "CGGAAAATAATTAAATCATTTATTGCAACTAATTTTATAG"}}, "molecular_target": "T1, AtHB13-GST (Arabidopsis thaliana, UniProt Q8LC03 1-294)", "T1 sequence": "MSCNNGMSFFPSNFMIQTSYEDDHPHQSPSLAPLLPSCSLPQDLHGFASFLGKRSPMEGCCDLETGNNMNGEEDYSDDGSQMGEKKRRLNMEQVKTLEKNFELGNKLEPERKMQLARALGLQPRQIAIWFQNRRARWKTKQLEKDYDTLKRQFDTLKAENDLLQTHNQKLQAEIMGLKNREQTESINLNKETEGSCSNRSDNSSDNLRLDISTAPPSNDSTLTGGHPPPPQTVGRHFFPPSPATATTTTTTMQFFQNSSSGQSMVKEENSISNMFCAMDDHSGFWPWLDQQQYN", "assay": "EMSA; 200x unlabeled same-sequence competitor also run (lane 3); EMSA as in Wu et al. 2012, Odyssey Infrared EMSA kit (LI-COR); buffer, salt, pH and temperature not stated", "conditions": "protein: recombinant; tags: GST (pDEST24, C-terminal fusion); chain copies: 2; label: 5'-DY682; blunt", "data": [{"binder": "B1", "values": [{"measurement": "binding result", "value": "binds"}]}]}
